From US20250161408A1, “PEPTIDIC INHIBITORS OF AMYLOID SELF- AND CROSS-ASSEMBLY” (TECHNISCHE UNIVERSITÄT MÜNCHEN, priority 2022, published 2025)
Non-standard residues stand in square brackets, D forms with d. NMeF = CN[C@@H](Cc1ccccc1)C(=O)O; NMeV = CN[C@H](C(=O)O)C(C)C; Nle = CCCC[C@H](N)C(=O)O

Biological target: T1, fIAPP (Homo sapiens, UniProt P10997)
T1 construct: made in house; host or cells: chemical synthesis (Fmoc-SPPS), air-oxidised, RP-HPLC purified
T1 sequence (P10997 34-70 limits assumed): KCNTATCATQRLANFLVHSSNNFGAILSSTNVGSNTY
Experiment: Dot blot binding of Fluos-peptides to fIAPP
Details: Fluos-peptides 0.2 μM
Protocol: After blocking (5% milk in TBS-T, 2 h, RT) and several washing steps (with TBS-T and ThT buffer), membranes were incubated with N-terminal fluorescein-labeled ACMs (Fluos-ACMs) at 0.2 μM for IAPP-related membranes or 2 μM for Aβ42-related membranes; incubation was overnight (10° C.) in ThT buffer (containing 1% HFIP). To control for fibril autofluorescence, similar membranes were incubated in parallel with buffer only. Bound peptides were visualized using a LAS-400 mini instrument (Fujifilm) equipped with a suitable fluorescence filter.

QKL(N-Me)VF(N-Me)FAED - Val-Gly-Ser - NKGAIIGLNleVGGVV (H-QKL[NMeV]F[NMeF]AEDVGSNKGAIIGL[Nle]VGGVV-OH; SMILES CCCC[C@H](NC(=O)[C@H](CC(C)C)NC(=O)CNC(=O)[C@@H](NC(=O)[C@@H](NC(=O)[C@H](C)NC(=O)CNC(=O)[C@H](CCCCN)NC(=O)[C@H](CC(N)=O)NC(=O)[C@H](CO)NC(=O)CNC(=O)[C@@H](NC(=O)[C@H](CC(=O)O)NC(=O)[C@H](CCC(=O)O)NC(=O)[C@H](C)NC(=O)[C@H](Cc1ccccc1)N(C)C(=O)[C@H](Cc1ccccc1)NC(=O)[C@H](C(C)C)N(C)C(=O)[C@H](CC(C)C)NC(=O)[C@H](CCCCN)NC(=O)[C@@H](N)CCC(N)=O)C(C)C)[C@@H](C)CC)[C@@H](C)CC)C(=O)N[C@H](C(=O)NCC(=O)NCC(=O)N[C@H](C(=O)N[C@H](C(=O)O)C(C)C)C(C)C)C(C)C) [VGS-VF]
Binding to fIAPP (dot blot): bind fIAPP
